According to patent US20220308056A1 (OMEROS, published 2022):

Target: T1, MASP-2/C1-INH complex (fluid-phase, from human serum or plasma) (human, UniProt O00187 16-686; P05155 22-500)
T1 construct: also called C1-INH/MASP-2 complex
Assay: sandwich ELISA; mAb coated as capture, anti-C1-INH polyclonal detection, mannan-activated human serum
Protocol: The microtiter plate was blocked with 280 μl/well of 1% (w/v) BSA in TBS buffer for 1 hr at RT. (ii) Activated control serum was prepared by diluting pooled normal human serum (NHS) to 20% v/v in Tris-buffered saline (TBS; 10 mM Tris-C₁, 140 mM NaCl, pH 7.4) with 5 mM Ca²⁺. Mannan-agarose (100 uL, Sigma cat. M9917) was washed twice with five volumes of TBS/Ca²⁺, and resuspended to 100 μl in the same buffer. 500 μl of 20% serum was added to the 100 μl of mannan-agarose and incubated at room temperature (RT) with gentle shaking or rotation for 30 minutes. EDTA was then added to an end concentration of 10 mM and incubated for a further 2 minutes. The agarose was then spun down and the activated serum was aspirated off and stored at −20° C. (iii) Serial dilutions were prepared from the activated control serum over a range of 0.1% to 20% and the in TBS/Ca²⁺. The blocking buffer was discarded and 100 ul/well of samples or control sera was added to the plate and incubated for 1 hour at room temperature. […] (v) The plate was then washed 3× as described above. 100 μl/well anti-rabbit HRP (Sigma, 1:5000) was added and incubated for a further 45 min. (vi) The plate was then washed 3× as described above and 100 μl/well TMB substrate was added. When blue color developed, 50 μl/well 2N H₂SO₄ was added to stop the reaction and measured at the OD₄₅₀ nm.

T1 sequence (O00187 16-686, chain 1 of 2): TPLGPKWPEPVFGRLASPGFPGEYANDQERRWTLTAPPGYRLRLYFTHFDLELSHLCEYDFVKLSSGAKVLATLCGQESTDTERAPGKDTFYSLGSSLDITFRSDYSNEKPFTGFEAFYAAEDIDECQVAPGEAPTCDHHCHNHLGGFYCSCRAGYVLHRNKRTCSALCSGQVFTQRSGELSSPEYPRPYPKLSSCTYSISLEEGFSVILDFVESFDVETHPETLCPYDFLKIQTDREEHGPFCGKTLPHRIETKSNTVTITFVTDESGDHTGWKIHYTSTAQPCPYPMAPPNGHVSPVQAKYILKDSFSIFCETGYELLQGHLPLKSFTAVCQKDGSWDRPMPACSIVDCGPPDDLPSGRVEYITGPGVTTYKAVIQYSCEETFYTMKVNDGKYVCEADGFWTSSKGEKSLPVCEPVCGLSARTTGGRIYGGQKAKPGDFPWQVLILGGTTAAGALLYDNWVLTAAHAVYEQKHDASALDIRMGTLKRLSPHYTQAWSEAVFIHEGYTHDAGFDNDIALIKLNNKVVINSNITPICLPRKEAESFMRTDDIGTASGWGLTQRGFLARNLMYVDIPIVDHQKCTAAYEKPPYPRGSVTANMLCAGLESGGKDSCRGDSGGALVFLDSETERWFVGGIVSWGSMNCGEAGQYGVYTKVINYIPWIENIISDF
T1 sequence (P05155 22-500, chain 2 of 2): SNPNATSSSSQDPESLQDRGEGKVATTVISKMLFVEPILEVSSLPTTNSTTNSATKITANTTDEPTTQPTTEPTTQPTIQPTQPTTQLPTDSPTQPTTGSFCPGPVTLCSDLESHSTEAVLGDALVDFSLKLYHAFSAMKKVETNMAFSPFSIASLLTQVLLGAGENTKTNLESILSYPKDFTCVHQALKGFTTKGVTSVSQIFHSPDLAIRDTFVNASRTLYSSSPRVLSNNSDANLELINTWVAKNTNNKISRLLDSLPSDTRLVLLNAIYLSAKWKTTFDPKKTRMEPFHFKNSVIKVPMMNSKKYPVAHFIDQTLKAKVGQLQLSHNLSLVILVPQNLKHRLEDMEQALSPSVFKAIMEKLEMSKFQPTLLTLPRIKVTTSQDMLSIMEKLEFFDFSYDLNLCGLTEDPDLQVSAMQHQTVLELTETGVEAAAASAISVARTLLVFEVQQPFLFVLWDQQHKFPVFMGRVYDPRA

B1: anti-MASP-2 mAb clone #C7 (antibody, V domains shown)
VH: EVKLVESGGGLVKPGGSLKLSCAASGFTFSSYLMSWVRQTPEKRLEWVATISGGGGNTYHPDSMKGRFTISRDNAKNTLYLQMSSLRSEDTALYYCARHGDFGNYFDYWGQGTTLTVSS
VL: DIVMSQSPSSLAVSAGEKVTMSCKSSQSLLNSGTQKNYLAWYQQKPGQSPKLLIYWASTRESGVPDRFTGSGSGTDFTLTISSVQAEDLAVYYCKQSYNLFTFGAGTKLELKR
notes: From hybridomas of immunized MASP-2 KO mice; also called mAb #C7; mAb #7
binding result: binds
